In US8133978 (GlaxoSmithKline, dated 2012):

Legend:
[1] = molecular target: T1, Human interleukin-18 (recombinant human IL-18) (human, UniProt Q14116 37-193); assay: SPR, Biacore 3000, antibody captured on Protein A, 25 C
T1 construct: also called hIL-18
T1 sequence: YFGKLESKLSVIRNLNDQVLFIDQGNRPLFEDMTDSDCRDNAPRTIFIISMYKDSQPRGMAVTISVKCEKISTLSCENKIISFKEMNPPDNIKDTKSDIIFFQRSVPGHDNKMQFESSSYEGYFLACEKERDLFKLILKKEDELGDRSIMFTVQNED
Experimental: Biacore™ kinetic analysis of the humanised 2C10 antibodies was carried out on a Biacore™ 3000 instrument using Protein A capture of the antibodies in HBS-EP buffer (Biacore™). Briefly, Protein A was immobilised on a CM5 chip by primary amine coupling, using manufacturers recommended protocol, to densities around 2000-4000 resonance units (RU's). Humanised antibody was then passed over the Protein A surface and captured to levels of around 200-500 RU's, after a period of stabilisation, IL-18 (human or Rhesus) was passed over the captured antibody surface at defined concentrations and binding sensorgrams were obtained. […] All curves were double referenced against a buffer injection instead of IL-18 and the data was fitted to the 1:1 binding model using the global fit parameters in BiaEval 4.1. Off-rate ranking experiments were set up using the same Protein A capture method, however, only a single concentration of IL-18 was used (10 nM). Whilst the data was fitted using the same binding model as the kinetic analysis, since only one concentration of analyte was used on the off-rate is reported, this value is useful for ranking rather than giving an exact kinetic measurement and was used as a way of selecting which antibodies would be further investigated. […]

[2] = molecular target: T1, Human interleukin-18 (recombinant human …); assay: ELISA, human IL-18 captured by 16D10, antibody titrated
Experimental: ELISA with all nine humanised variants was carried out at least 6 times using various batches of purified antibody preparation. FIGS. 4A-4C show representative data from one experiment which generated the EC50 value ranking illustrated in Table 7. Human IL-18 was immobilized on Nunc Maxisorp 96-well plates using 2.5 µg/ml of 16D10 (non-neutralising mouse monoclonal antibody) to capture 5 ng/ml of recombinant human IL-18. Anti-IL-18 humanised antibodies were added at various dilutions. Bound humanised antibodies were detected using anti-human IgG Fc specific peroxidase conjugate (Sigma A0170).

Rhesus IL-18 [3] = molecular target: T2, Rhesus IL-18 (rhesus (rhesus/cynomolgus)); assay: SPR, Biacore 3000, antibody captured on Protein A, 25 C
T2 construct: also called Rhesus/Cynomolgus IL-18; rhesus/cynomolgus IL-18
Experimental: (§1) Biacore™ kinetic analysis of the humanised 2C10 antibodies was carried out on a Biacore™ 3000 instrument using Protein A capture of the antibodies in HBS-EP buffer (Biacore™). Briefly, Protein A was immobilised on a CM5 chip by primary amine coupling, using manufacturers recommended protocol, to densities around 2000-4000 resonance units (RU's). Humanised antibody was then passed over the Protein A surface and captured to levels of around 200-500 RU's, after a period of stabilisation, IL-18 (human or Rhesus) was passed over the captured antibody surface at defined concentrations and binding sensorgrams were obtained. […] All curves were double referenced against a buffer injection instead of IL-18 and the data was fitted to the 1:1 binding model using the global fit parameters in BiaEval 4.1. Off-rate ranking experiments were set up using the same Protein A capture method, however, only a single concentration of IL-18 was used (10 nM). Whilst the data was fitted using the same binding model as the kinetic analysis, since only one concentration of analyte was used on the off-rate is reported, this value is useful for ranking rather than giving an exact kinetic measurement and was used as a way of selecting which antibodies would be further investigated.
(§2) Based upon these observations selected antibodies were investigated in greater detail for binding to human and Rhesus IL-18 at 37° C. The data shown in Table 4b for human IL-18 is the mean (and standard deviation) of six separate determinations.

Rhesus IL-18 [4] = molecular target: T2, Rhesus IL-18; assay: SPR, Biacore 3000, antibody captured on Protein A, 37 C
Experimental: as §1, §2

[5] = molecular target: T1, Human interleukin-18 (recombinant human …); assay: as above
Experimental: as §1, §2

Rhesus IL-18 [6] = molecular target: T2, Rhesus IL-18; assay: Rhesus IL18 binding ELISA, antibody titrated, OD 490 nm
[7] = molecular target: T1, Human interleukin-18 (recombinant human …); assay: SPR, Biacore T100, antibody captured on Protein A, 15 C
[8] = molecular target: T1, Human interleukin-18 (recombinant human …); assay: SPR, Biacore T100, antibody captured on Protein A, 37 C
Experimental: (§3) The methodology was basically the same as for the method used in Example 4a above; Protein A was immobilised on a CM5 chip at densities of between 2000-6000 RU's by primary amine coupling. Runs were carried out in HBS-EP (Biacore™). The anti-IL-18 antibodies were captured to densities of between 100-500 RUs, human IL-18 was passed over this captured surface at concentrations between 16-0.0625 nM, with 0 nM concentration (i.e., a buffer only injection of captured antibody) used for double referencing. Regeneration after each injection of IL-18 was by mild acidic elution using two injections of 10 mM glycine, pH1.5. […] The binding curves obtained were analysed using the analysis software inherent to the T100 machine using the 1:1 model of binding. Runs were carried out at the temperatures indicated.
(§4) This experiment was carried out using the above method at various temperatures. […] Table 5 details the kinetic values used to create these figures.

[9] = molecular target: T1, Human interleukin-18 (recombinant human …); assay: SPR, Biacore T100, antibody captured on Protein A, 32 C
Experimental: as §3, §4

[10] = molecular target: T1, Human interleukin-18 (recombinant human …); assay: ELISA, antibody on plate, human IL-18 captured, detected by 16D10; 37 C, blocking buffer
Experimental: (§5) ELISA was carried out with the three Humanised H1 variants; H1L1, H1L2 and H1L3 to assess binding to human IL-18 at room temperature and at 37° C. in both human serum and in block solution (PBS 0.05% TWEEN with 1% BSA (w/v)). The Humanised antibody variants were immobilised on Nunc Maxisorp 96-well plates at 2.5 µg/ml. Capture of 5 ng/ml of recombinant human IL-18 was carried out either at room temperature or 37° C. in human serum or block solution. Anti-IL-18 mouse monoclonal antibody 16D10 was added. The bound mouse antibody was detected using anti-mouse kappa peroxidase conjugate (Serotec MCA 1291P). Representative EC50 values generated from the study data are illustrated in Table 9.

[11] = molecular target: T1, Human interleukin-18 (recombinant human …); assay: SPR, Biacore T100, antibody captured on Protein A, 20 C
Experimental: as §3, §4

[12] = molecular target: T1, Human interleukin-18 (recombinant human …); assay: SPR, Biacore T100, antibody captured on Protein A, 25 C
Experimental: as §3, §4

[13] = molecular target: T1, Human interleukin-18 (recombinant human …); assay: SPR, Biacore T100, Protein A capture, 37 C, mean n = 6
Experimental: as §3
(§6) These experiments were carried out as described above. Table 6 details the kinetic parameters obtained. […] H1L2 has a better on-rate (ka) than H1L1.

[14] = molecular target: T1, Human interleukin-18 (recombinant human …); assay: ELISA, antibody on plate, human IL-18 captured, detected by 16D10; room temperature, blocking buffer
Experimental: as §5

[15] = molecular target: T1, Human interleukin-18 (recombinant human …); assay: cell-based or functional assay
[16] = molecular target: T1, Human interleukin-18 (recombinant human …); assay: ELISA, antibody on plate, human IL-18 captured, detected by 16D10; 37 C, in serum
Experimental: as §5

[17] = molecular target: T1, Human interleukin-18 (recombinant human …); assay: SPR, Biacore T100, Protein A capture, 25 C, mean n = 4
Experimental: as §3, §6

[18] = molecular target: T1, Human interleukin-18 (recombinant human …); assay: ELISA, antibody on plate, human IL-18 captured, detected by 16D10; room temperature, in serum
Experimental: as §5

B1: H2L2 humanised anti-IL-18 antibody (antibody, human IgG1, kappa, V domains shown)
VH: QVQLVQSGAEVKKPGASVKVSCKVSGEISTGYYFHWVRRRPGKGLEWMGRIDPEDDSTKYAERFKDRVTMTEDTSTDTAYMELSSLRSEDTAVYYCTTWRIYRDSSGRPFYVMDAWGQGTLVTVSS
VL: DIQMTQSPSSVSASVGDRVTITCLASEDIYTYLTWYQQKPGKAPKLLIYGANKLQDGVPSRFSGSGSGTDYTLTISSLQPEDFATYYCLQGSKFPLTFGQGTKLEIKR
notes: Human IgG1 / kappa
Kd [1]: 0.0201 nM | EC50 [2]: 0.012 µg/mL | Kd (Rhesus IL-18 [3]): 0.104 nM

B2: H2L3 humanised anti-IL-18 antibody (antibody, human IgG1, kappa, V domains shown)
VH: QVQLVQSGAEVKKPGASVKVSCKVSGEISTGYYFHWVRRRPGKGLEWMGRIDPEDDSTKYAERFKDRVTMTEDTSTDTAYMELSSLRSEDTAVYYCTTWRIYRDSSGRPFYVMDAWGQGTLVTVSS
VL: DIQMTQSPSSVSASVGDRVTITCLASEDIYTYLTWYQQKPGKAPQLLIYGANKLQDGVPSRFSGSGSGTDYTLTISSLQPEDEGDYYCLQGSKFPLTFGQGTKLEIKR
notes: Human IgG1 / kappa
Kd [1]: 0.0238 nM | EC50 [2]: 0.016 µg/mL

B3: H3L3 humanised anti-IL-18 antibody (antibody, human IgG1, kappa, V domains shown)
VH: QVQLVQSGAEVKKPGASVKVSCKVSGEISTGYYFHFVRRRPGKGLEWMGRIDPEDDSTKYAERFKDRVTMTADTSTDTAYMELSSLRSEDTATYFCTTWRIYRDSSGRPFYVMDAWGQGTLVTVSS
VL: DIQMTQSPSSVSASVGDRVTITCLASEDIYTYLTWYQQKPGKAPQLLIYGANKLQDGVPSRFSGSGSGTDYTLTISSLQPEDEGDYYCLQGSKFPLTFGQGTKLEIKR
notes: Human IgG1 / kappa
Kd [1]: 0.0242 nM | Kd (Rhesus IL-18 [4]): 0.0756 nM | Kd [5]: 0.11 nM | EC50 [2]: 0.009 µg/mL | EC50 (read off the curve) (Rhesus IL-18 [6]): ~0.03 µg/mL

B4: H2L1 humanised anti-IL-18 antibody (antibody, human IgG1, kappa, V domains shown)
VH: QVQLVQSGAEVKKPGASVKVSCKVSGEISTGYYFHWVRRRPGKGLEWMGRIDPEDDSTKYAERFKDRVTMTEDTSTDTAYMELSSLRSEDTAVYYCTTWRIYRDSSGRPFYVMDAWGQGTLVTVSS
VL: DIQMTQSPSSVSASVGDRVTITCLASEDIYTYLTWYQQKPGKAPKLLIYGANKLQDGVPSRFSGSGSGTDFTLTISSLQPEDFATYYCLQGSKFPLTFGQGTKLEIKR
notes: Human IgG1 / kappa
Kd [1]: 0.0335 nM | EC50 [2]: 0.021 µg/mL | Kd (Rhesus IL-18 [3]): 0.627 nM

B5: H3L2 humanised anti-IL-18 antibody (antibody, human IgG1, kappa, V domains shown)
VH: QVQLVQSGAEVKKPGASVKVSCKVSGEISTGYYFHFVRRRPGKGLEWMGRIDPEDDSTKYAERFKDRVTMTADTSTDTAYMELSSLRSEDTATYFCTTWRIYRDSSGRPFYVMDAWGQGTLVTVSS
VL: DIQMTQSPSSVSASVGDRVTITCLASEDIYTYLTWYQQKPGKAPKLLIYGANKLQDGVPSRFSGSGSGTDYTLTISSLQPEDFATYYCLQGSKFPLTFGQGTKLEIKR
notes: Human IgG1 / kappa
Kd [1]: 0.0165 nM | Kd (Rhesus IL-18 [4]): 0.0643 nM | Kd [5]: 0.105 nM | EC50 [2]: 0.008 µg/mL | Kd (Rhesus IL-18 [3]): 0.0596 nM

B6: H3L1 humanised anti-IL-18 antibody (antibody, human IgG1, kappa, V domains shown)
VH: QVQLVQSGAEVKKPGASVKVSCKVSGEISTGYYFHFVRRRPGKGLEWMGRIDPEDDSTKYAERFKDRVTMTADTSTDTAYMELSSLRSEDTATYFCTTWRIYRDSSGRPFYVMDAWGQGTLVTVSS
VL: DIQMTQSPSSVSASVGDRVTITCLASEDIYTYLTWYQQKPGKAPKLLIYGANKLQDGVPSRFSGSGSGTDFTLTISSLQPEDFATYYCLQGSKFPLTFGQGTKLEIKR
notes: Human IgG1 / kappa
Kd [1]: 0.0194 nM | EC50 [2]: 0.013 µg/mL | Kd (Rhesus IL-18 [3]): 0.149 nM

B7: H1L1 humanised anti-IL-18 antibody (antibody, human IgG1, kappa, V domains shown)
VH: QVQLVQSGAEVKKPGASVKVSCKVSGEISTGYYFHWVRQAPGKGLEWMGRIDPEDDSTKYAERFKDRVTMTEDTSTDTAYMELSSLRSEDTAVYYCTTWRIYRDSSGRPFYVMDAWGQGTLVTVSS
VL: DIQMTQSPSSVSASVGDRVTITCLASEDIYTYLTWYQQKPGKAPKLLIYGANKLQDGVPSRFSGSGSGTDFTLTISSLQPEDFATYYCLQGSKFPLTFGQGTKLEIKR
notes: Human IgG1 / kappa
Kd [1]: 0.0332 nM | Kd [7]: 0.0201 nM | Kd [8]: 0.0533 nM | Kd [9]: 0.0472 nM | EC50 [10]: 0.00343 µg/mL | Kd [11]: 0.0237 nM | Kd [12]: 0.0311 nM | Kd [13]: 0.0943 nM | EC50 [2]: 0.01 µg/mL | Kd (Rhesus IL-18 [3]): 0.38 nM | EC50 [14]: 0.00331 µg/mL | % change vs 2C10 (IC50, KG-1 bioassay) [15]: 269% | EC50 [16]: 0.0121 µg/mL | Kd [17]: 0.0331 nM | EC50 [18]: 0.0102 µg/mL
